This is an account of results in publication PMC6710073 (Nature chemical biology, 2019).

What all share (assay): BLI
The target of test [1] is T1, SUMO-25–109MDM2 (UniProt Q00987 25-109).
Test [2] deals with T1, SUMO-25–109MDM2. The source holds these as a separate data set.
Test [3] addresses T1, SUMO-25–109MDM2. The source holds these as a separate data set.

A word on the Kd: it is the equilibrium constant for the complex coming apart. Read a high Kd as weaker binding.

Read-outs that look alike come from different tables or passages of the source. Non-standard residues stand in square brackets, D forms with d. No end group written: not given here. Cba = N[C@@H](CC1CCC1)C(=O)O

For LTFEHY[hexylalanine]AQ[Cba]TSK [compound 37], the affinity in test [1], expressed as Kd, was 500 pM. On to GSGSGSGSGSGSSQETFSDLWKLLPEN (not fully specified; D-biotin on its N terminus) [biotinylated 118: modified 15–29 p53 peptide with an N-terminal Gly-Ser linker], for which the binding result in test [2] is listed as “binds”.

On to LTFEHYWAQFTSK (also: biotinylated, position not given here) [compound 6], for which, in test [3], the binding result was “binds”.
